Measurements as given in US20040167074A1, “Therapeutic applications of mFLINT polypeptides” (priority 1998, published 2004).
Where “and” joins values, the source holds several entries; their conditions need not be identical. Identical values can stand only once.

How the values were obtained:
hFasLigand (Flag-tagged) = target: T1, hFasLigand (Flag-tagged) (Homo sapiens, UniProt P48023); assay: ELISA: FasLigand binding to adsorbed FLINT and Fas; details: 100 ng receptor adsorbed
T1 sequence (P48023 103-281 limits assumed): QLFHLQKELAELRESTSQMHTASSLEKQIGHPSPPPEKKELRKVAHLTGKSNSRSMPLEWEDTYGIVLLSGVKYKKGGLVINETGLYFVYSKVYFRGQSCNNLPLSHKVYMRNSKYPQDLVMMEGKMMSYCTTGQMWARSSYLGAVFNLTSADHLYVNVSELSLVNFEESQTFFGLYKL
Description: FLINT and Fas (100 ng of each) were adsorbed on to an ELISA plate. hFasLigand (Flag-tagged) was added at different concentrations to a maximum concentration of 300 ng down to 0.1 ng on TBST plus a 0.1% solution containing 1 microgram/ml of M2 Abs. After washing of the plate, anti-mouse-Abs-HRP (1:3000 dilution, Bio-Rad) was added to the wells. After washings, visualization enzymatic reaction using ABTS as a substrate was performed.

LIGHT = LIGHT cell surface binding assay by flow cytometry; details: LIGHT expressing cells preincubated with 10 fold excess of non tagged mFLINT
Description: To confirm the dot blot binding between LIGHT and mFLINT, 293 cells were transiently transfected with LIGHT expression construct overnight. On the next day, cells were detached and incubated with mFLINT-Flag on ice. […] As a control we used vector transfected cells. To make sure that the binding was specific, a competition assay with 10 fold access of untagged mFLINT was performed.
More particularly, 6 well dishes of cells were transfected as above. Both vector and m-LIGHT expressing cells were provided. Cells were detached from the plates by vigorous pipetting with a P100 Pipettor. Then, in PBS/BSA, 0.1%, cells were exposed to one of the following combinations, set forth in a-d.
a. GST/flag, mFLINT/flag, or HVEM at 20 nM;
b. FLINT/flag at 20 nM+GST/flag or mFLINT or HVEM at 200 nM;
c. FLINT/flag at 20 nM+HVEM+anti-human FAS ligand at 200 n-M;
d. anti-human FAS ligand-biotin at 1 μg/ml
Cells were incubated on ice for 30 minutes and washed with PBS/BSA, 0.1%. Cells then were exposed either to anti-human IgG-biotin, 1 μg/ml (for detection of HVEM), or to M2-biotin, 2 μg/ml (for detection of flag conjugates). Cells were incubated on ice for 30 minutes and washed with PBS/BSA, 0.1%. Thereafter, cells were exposed to streptavidin Alexa 488 (SIGMA) at a 1:1000 dilution. Again, cells were incubated on ice for 30 minutes and washed with PBS/BSA, 0.1 1%. Cells were analyzed using a FACSORT flow cytometer (Decton Dickinson) to determine binding.

[1] = tested on: Mouse T cell hybridoma cells (LTT cells); assay: Murine FasL-mediated apoptosis of LTT cells (MTS cytotoxicity assay); format: cell-based; details: test agent 1 μg/ml
Description: LTT,2,14,11 cells (LTT cells), see Glasebrook, Eur.J.Immunol. 17: 1561-65 (1987), were used in this Annexin V assay. On the first day, a 96 well plate was coated with anti-CD3 (2C11) at a serial dilutions. On the second day, 100,000 LTT cells were added, in 50 μl of medium per well, along with 50 μl of medium to the control wells and 50 μl of medium containing:
The same steps as in Example 16 were followed on Day 1 and Day 2. On Day 3 20 ul of MTS solution (Promega) was added to the cells which were then incubated at 37° C. for 2 hours. Using a plate reader, the absorbances at 490 nm wavelength were collected.

osteoclasts = assay: Porcine osteoclast differentiation assay (TRAP staining); format: cell-based, pig; details: mean and standard error of 6 wells
From the text: Neonatal pigs (aged 1-5 days) were euthanized with CO2, the appendages were rinsed with 70% ethanol, the soft tissues were removed, and the humeri, radii, ulnae, femora, tibiae and fibulae were excised. The long bones were placed in ice-cold calcium and magnesium-free Hank's balanced salt solution (CMF-HBSS, Gibco BRL) and cleaned of all soft tissues. The bones were split longitudinally and the endosteal surfaces were scraped to remove both the marrow and trabecular bone. The suspension of trabecular bone particles and marrow cells was agitated by vigorous shaking and passed through a […] and then […] sieve. Cells were centrifuged at 500×g for 10 minutes at 4° C., the pellet was resuspended in CMF-HBSS, and then separated on a Ficoll-Paque gradient (Pharmacia, Piscataway, N.J.). The mononuclear cell fraction from the gradient was washed twice in CMF-HBSS and passed through a […] sieve. The cells were suspended in growth medium consisting of a-MEM (pH 7.2, which was modified to contain 8.3 mM NaHCO3 (Gibco BRL, Grand Island, N.Y.)), 10% heat-inactivated fetal bovine serum (FBS, Hyclone, Logan, Utah) and 2% antibiotic/antimycotic solution (Gibco BRL, Grand Island, N.Y.) and seeded onto tissue culture dishes at a density of 1×10^6 cells/cm^2. A typical marrow cell yield was between 1-2×10^9 cells/animal, which varied with the size of the animal. The cells were incubated at 37° C. in a humid incubator with 5% CO2. […] Following 5 days of culture, the cells were fixed with formalin (3.7% for 10 min) and then stained for tartrate-resistant acid phosphatase (TRAP) as in Example 6. The number of osteoclasts (TRAP-positive cells containing 3 or more nuclei) was quantitated.

Jurkat cells = assay: Recombinant FasL induced Jurkat cell apoptosis (Annexin V/PI, FACS); format: cell-based; details: Jurkat + FasL 200 ng/ml + 1 ug test agent
Description: One milliliter of 1×10^6 cell/ml was added into each well of 24 well tissue culture plate and treated with following reagents: soluble Fas L (200 ng), Fas L plus 1 ug mFLINT, Fas L plus 1 ug OPG2-Fc, Trail (200 ng), Trail plus 1 ug mFLINT. Cells were incubated overnight at 37° C. and then stained with Annexin V and PI.

[2] = tested on: Ventricular cardiomyocytes; assay: Hypoxia/reperfusion-induced cardiomyocyte apoptosis (nucleosome DNA ELISA)
Description: In particular, cardiomyocytes were incubated under hypoxia conditions for 8 hours, followed by 16 hours of culture under normal O2, which mimics the hypoxic conditions found in ischemic cardiac tissue.
Ventricular cardiomyocytes were isolated from the hearts of 1-3 day-old neonatal rats by trypsin digestion and non-myocytes were eliminated by pre-plating. Primary cultures were plated in special-coated 96-well plates in serum-free medium.
Hypoxia was induced by incubating cultures in glucose-free and oxygen-free (5% Co2 and 95% N2) for 8 hours. Reperfusion was mimicked by a 16 hour incubation in glucose-containing medium under normal oxygen conditions. At the end of this incubation, cardiomyocyte apoptosis was measured by the cytoplasmic nucleosome-associated DNA ELISA method. Test samples were incubated with mFLINT (2 μg/ml or 5 μg/ml) and control samples with Z-YVAD-fmk (50 μM), a commercial caspase inhibitor.

B1: mFLINT: mature FLINT without leader peptide (FIG. 3), soluble TNFR superfamily member, made according to Examples 8 and 9 (protein)
chain: VAETPTYPWRDAETGERLVCAQCPPGTFVQRPCRRDSPTTCGPCPPRHYTQFWNYLERCRYCNVLCGEREEEARACHATHNRACRCRTGFFAHAGFCLEHASCPPGAGVIAPGTPSQNTQCQPCPPGTFSASSSSSEQCQPHRNCTALGLALNVPGSSSHDTLCTSCTGFPLSTRVPGAEECERAVIDFVAFQDISIKRLQRLLQALEAPEGWGPTPRAGRAALQLKLRRRLTELLGAQDGALLVRLLQALRVARMPGLERSVRERFLPVH
modifications: glycosylated
- OD, 405 nM (hFasLigand (Flag-tagged); FasL 0.1 ng): 0
- OD, 405 nM (hFasLigand (Flag-tagged); FasL 0.5 ng): 0
- OD, 405 nM (hFasLigand (Flag-tagged); FasL 1.0 ng): .02
- OD, 405 nM (hFasLigand (Flag-tagged); FasL 5.0 ng): .04
- OD, 405 nM (hFasLigand (Flag-tagged); FasL 10 ng): .12
- OD, 405 nM (hFasLigand (Flag-tagged); FasL 50 ng): .28
- OD, 405 nM (hFasLigand (Flag-tagged); FasL 100 ng): .78
- competition of mFLINT-Flag binding (LIGHT): completely reversed to baseline peak
- MTS absorbance at 490 nm ([1]; Anti CD3 conc. 0 μg/ml): 1.691
- MTS absorbance at 490 nm ([1]; Anti CD3 conc. 0.0014 μg/ml): 1.923
- MTS absorbance at 490 nm ([1]; Anti CD3 conc. 0.004 μg/ml): 1.982
- MTS absorbance at 490 nm ([1]; Anti CD3 conc. 0.012 μg/ml): 2.006
- MTS absorbance at 490 nm ([1]; Anti CD3 conc. 0.037 μg/ml): 2.006
- MTS absorbance at 490 nm ([1]; Anti CD3 conc. 0.11 μg/ml): 1.874
- MTS absorbance at 490 nm ([1]; Anti CD3 conc. 0.33 μg/ml): 1.671
- MTS absorbance at 490 nm ([1]; Anti CD3 conc. 1 μg/ml): 1.581
- Osteoclasts/well (osteoclasts; FLINT 0.01 ng/ml, control 214.83): 68.83 ± 6.28 Osteoclasts/well
- Osteoclasts/well (osteoclasts; FLINT 0.10 ng/ml): 176.17 ± 23.01 Osteoclasts/well
- Osteoclasts/well (osteoclasts; FLINT 1.00 ng/ml): 228.50 ± 17.26 Osteoclasts/well
- Osteoclasts/well (osteoclasts; FLINT 10.00 ng/ml): 228.50 ± 29.29 Osteoclasts/well
- Osteoclasts/well (osteoclasts; FLINT 100.00 ng/ml): 382.33 ± 26.59 Osteoclasts/well
- Cell apoptosis (Annexin V and PI, FACS) (Jurkat cells): 3.32 and 4.6
- inhibition of hypoxia-induced apoptosis ([2]; 10 μg/ml mFLINT, 8 hours hypoxia, 16 hours normal O2): 90%
- inhibition of hypoxia/reperfusion-induced apoptosis ([2]; mFLINT 2 μg/ml or 5 μg/ml, duplicate experiments): essentially complete inhibition
